# Source: patent US20220062405A1
# Columns and labels:
# FcRn (human) = FcRn (human) (UniProt P55899)
# FcγRI (CD64) (human) = FcγRI (CD64) (human) (UniProt P12314)
# FcγRIIIa (CD16a) (human) = FcγRIIIa (CD16a) (human) (UniProt P08637)
# FcγRIIa (CD32a) (human) = FcγRIIa (CD32a) (human) (UniProt P12318)
# [1] = target: FcγRIIb/c (CD32b/c) (human) (UniProt P31994)
# [2] = target: diphtheria toxin (target of Diphteria antitoxin) (UniProt P00588); assay: specific antibody content of the polyclonal IgG preparation; assay not described
# Sequence of UniProt P00588 (P00588 33-567 limits assumed): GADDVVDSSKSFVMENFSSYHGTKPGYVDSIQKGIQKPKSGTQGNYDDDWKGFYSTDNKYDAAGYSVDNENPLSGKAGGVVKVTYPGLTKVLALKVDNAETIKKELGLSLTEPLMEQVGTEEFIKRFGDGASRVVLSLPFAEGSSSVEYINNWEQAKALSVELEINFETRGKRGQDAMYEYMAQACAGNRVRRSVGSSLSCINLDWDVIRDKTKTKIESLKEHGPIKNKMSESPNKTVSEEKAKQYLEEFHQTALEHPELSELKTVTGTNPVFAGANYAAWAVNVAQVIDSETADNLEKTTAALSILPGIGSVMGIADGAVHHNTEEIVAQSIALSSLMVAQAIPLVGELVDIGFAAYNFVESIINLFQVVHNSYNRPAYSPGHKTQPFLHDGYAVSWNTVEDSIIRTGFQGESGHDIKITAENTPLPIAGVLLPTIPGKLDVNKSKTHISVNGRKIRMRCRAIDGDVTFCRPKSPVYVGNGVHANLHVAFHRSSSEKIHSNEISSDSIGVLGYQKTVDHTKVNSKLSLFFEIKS
# [3] = target: parvovirus antigen (target of Parvovirus-Ab); assay: as above
substance,measurement,setting,value
IgG (Hizentra) (antibody),Kd,FcRn (human),1 nM
same,koff,FcRn (human),0.0025 s⁻¹
same,kon,FcRn (human),2.5e+06 M⁻¹ s⁻¹
same,Kd,FcγRI (CD64) (human),19.7 nM
same,koff,FcγRI (CD64) (human),0.0017 s⁻¹
same,kon,FcγRI (CD64) (human),87000 M⁻¹ s⁻¹
same,Kd,FcγRIIIa (CD16a) (human),496 nM
same,koff,FcγRIIIa (CD16a) (human),0.036 s⁻¹
same,kon,FcγRIIIa (CD16a) (human),73000 M⁻¹ s⁻¹
same,Kd,FcγRIIa (CD32a) (human),213 nM
same,koff,FcγRIIa (CD32a) (human),0.055 s⁻¹
same,kon,FcγRIIa (CD32a) (human),260000 M⁻¹ s⁻¹
same,Kd,[1],2700 nM
same,Diphteria antitoxin (IU/mL),[2],18.1 IU/mL
same,Parvovirus-Ab (IU/mL),[3]; original Hizentra formulation,595 IU/mL
same,Parvovirus-Ab (IU/mL),[3]; re-formulated Hizentra,509 IU/mL
